This is an account of results in PMC7545742, “A Toolbox for Site-Specific Labeling of RecQ Helicase With a Single Fluorophore Used in the Single-Molecule Assay”.

Series [1] concerns the target T1, RecQ-Cy5 (sortase A ligation of RecQ516-LPETG and Cy5-GGG-HRDC) (Escherichia coli, UniProt P15043 1-516+=LPETGGG+524-609+=VD, E609C;internal_change). The experiment in a line: smFRET; RecQ-Cy5, same conditions (5 nM); EFRET 0 to ~0.92; duration 5.19 +/- 0.28 s; HRDC contacts 5' end; smFRET on DNA with biotinylated strand in reaction chamber; 5 nM RecQ-Cy5 bound 2 min, then washed; reaction buffer composition, pH and temperature not in the material. The note with it: protein: recombinant; tags: Cy5-maleimide at C610; label: Cy3 5' of strand 1; biotin 5' of strand 2; fork 1:2, 17 bp stem, 5' arm 7 nt (strand 1), 3' arm 10 nt (strand 2).

Another series deals with wild-type RecQ helicase (Escherichia coli, UniProt P15043 1-609). Nature of the series: smFRET; EFRET 0.92 to 0.54; bound dwell time 4.47 +/- 0.23 s; smFRET on DNA with biotinylated strand in reaction chamber; 5 nM RecQ-Cy5 bound 2 min, then washed; reaction buffer composition, pH and temperature not in the material. The note with it: protein: recombinant; label: Cy3 3' of strand 1; internal Cy5 after nt 4 and biotin 3' of strand 2; 3' overhang 10 nt, 16 bp stem; one A:G mismatch (strand 1 nt 8).

Series [2] has as its target T1, RecQ-Cy5 (sortase A ligation of …). The experiment in a line: smFRET; 5 nM RecQ-Cy5, free protein washed off; EFRET 0 to ~0.84; duration 4.65 +/- 0.17 s; HRDC contacts 3' end; smFRET on DNA with biotinylated strand in reaction chamber; 5 nM RecQ-Cy5 bound 2 min, then washed; reaction buffer composition, pH and temperature not in the material. The note with it: protein: recombinant; tags: Cy5-maleimide at C610; label: Cy3 3' of strand 1; biotin 3' of strand 2; 3' overhang 15 nt, 18 bp stem; one A:G mismatch (strand 1 nt 8).

For series [3] the target is unchanged. Nature of the series: smFRET; 5 nM RecQ-Cy5, free protein washed off; EFRET 0 to ~0.5; duration 5.17 +/- 0.82 s; smFRET on DNA with biotinylated strand in reaction chamber; 5 nM RecQ-Cy5 bound 2 min, then washed; reaction buffer composition, pH and temperature not in the material. The following applies: protein: recombinant; tags: Cy5-maleimide at C610; label: Cy3 3' of strand 1; biotin 3' of strand 2; 3' overhang 10 nt, 18 bp stem; one A:G mismatch (strand 1 nt 8).

B1: fork DNA, 10-nt 3' overhang and 7-nt 5' overhang (mixed)
DNA 1: TTTTTTTATGTATGACAAGGAAGG
DNA 2: CCTTCCTTGTCATACATAAATTTTTTT
modifications: none
As to B1, the binding result in series [1] is “binds”.

B2: 16 bp with 3' 10-nt overhang, Cy3/Cy5 (mixed)
DNA 1: AATCCGTAGAGCAGAGGTGTGTGTGG
DNA 2: CTCTGCTCGACGGATT
modifications: none
B2: the binding result with wild-type RecQ helicase is on record as “binds”.

B3: 3' 15-nt overhang DNA, Cy3 (mixed)
DNA 1: AATCCGTAGAGCAGAGGTGTGTGTGGTGTTTTT
DNA 2: ACCTCTGCTCGACGGATT
modifications: none
B3: the binding result in series [2] is reported as “binds”.

B4: 3' 10-nt overhang DNA, Cy3 (mixed)
DNA 1: AATCCGTAGAGCAGAGGTGTGTGTGGTG
DNA 2: ACCTCTGCTCGACGGATT
modifications: none
Take B4: the binding result in series [3] was “binds”.
